The results in this text go back to the supplement of paper PMC10567573.

The data set in a line: protein stability index of a GFP-peptide fusion (GPS, HEK-293T) (PSI 1-6); higher = more stable. Conditions: c terminus: native.
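Further: lentivirally expressed fusion library, cells FACS-sorted into six equal-sized GFP/DsRed ratio bins, PSI computed from sequencing read fractions per bin weighted by bin number.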

For the protein HSLRAVSTDPPHHDHHDEFCLMPS [BEX2 addS], for the setting “parent: NP_116010.1”, the protein stability index was found to be 3.84.

Take EQRNSRWNTVLRAVKAKTHHLEPS [TRPA1 addS]: the protein stability index (parent: NP_015628.1) worked out at 4.6.

CQPISFSGFGAEDDDLGGLGLGPS [POLD2 addS]: under “parent: NP_006221.1”, the protein stability index was found to be 2.6.

As to LPALFTDLYSQEITAEEAREALPS [SNF8 addS], the protein stability index (parent: NP_009172.2) was found to be 4.4.

Regarding CQPISFSGFGAEDDDLGGLGLGPH [POLD2 addH], the protein stability index (parent: NP_006221.1) stood at 2.24.

Regarding LPALFTDLYSQEITAEEAREALPH [SNF8 addH], for the setting “parent: NP_009172.2”, the protein stability index came out at 4.88.

For the protein EQRNSRWNTVLRAVKAKTHHLEPH [TRPA1 addH], where the note is “parent: NP_015628.1”, the protein stability index came out at 5.05.

As to DGWIRVSSDNVADLHEKYSGSTPH [PSMB5 addH], the protein stability index (parent: NP_002788.1) was found to be 3.83.

Consider DGWIRVSSDNVADLHEKYSGSTPS [PSMB5 addS], for which the protein stability index (parent: NP_002788.1) was determined as 3.98.
